Positions count from the first letter of the chain named. Like-named read-outs stand apart in the source and are kept apart here.
B1: 32C9F4 (antibody, human IgG4 S228P, kappa, V domains shown)
VH: QVQLQQPGAELVKPGASVKLSCKASGYTFTSYWMHWVKQRPGQGLEWIGMIHPNSGVTKYNEKFKSKATLTVDKSSSTAYMQLSSLTSEDSAVYFCAGDGRFAYWGQGTLVTVSA
VL: DIQMTQSPSSLSASLGERVSLTCRASQDIGSSLNWLQQEPDGTIKRLIYATSSLDSGVPKRFSGSRSGSDYSLTISSLESEDFVDYYCLQYASSPWTFGGGTKLEIKR
notes: Hybridoma screening; also called 2-2
B2: 28E10B12 (antibody, human IgG4 S228P, kappa, V domains shown)
VH: QVQLQQPGAELVKPGASVKLSCKASGYTFTSYWMNWVKQRPGQGLEWIGMIHPNSDITNYNEKFKSQATLTVDKSSSTAYMQLSSLTSEDSAVYYCARHGRFDYWGQGTTLTVSS
VL: B1 VL with S20T, W96F, G100S
notes: Hybridoma screening; also called 2-3
B3: 45A10D5 (antibody, human IgG4 S228P, kappa, V domains shown)
VH: B1 VH with V57S, K59N, F95Y, A97V, G98Y
VL: B1 VL with W96F, G100S
notes: Hybridoma screening; also called 2-1
B4: u6506gj130-1-2 (antibody, human IgG4 S228P, kappa, V domains shown)
VH: EVQLQQSGPELVKPGASVKISCQASGYTFTDYYLNWVKQSHGKSLEWIGDIDPHNGGTSYNQKFKDKATLTVDKSSSTAYMELRSLTSEDSAVYYCARFPIYYSGSSPMDYWGQGTSVTVSS
VL: DIQMTQSPASLSASVGETVTITCRTNENIFSYLAWYQQKQGKSPQLLVYNAKTLAEGVPSRFSGSASGTQFSLKINTLQPEDFGSYYCQHHYGTPYTFGGGTKLEIIR
notes: Beacon screening
B5: u6506gj130-1-10 (antibody, human IgG4 S228P, kappa, V domains shown)
VH: QVQLQQPGAELVKPGASVKLSCKASGYIFTSYWMHWVKQRPGQGLEWIGMIHPNSGSTNYNEKFKSKATLTVDKSSSTAYMQLSSLTSEDSAVYYCAREGNWARGYFEYWGQGTTLTVSS
VL: DIKMTQSPSSMYASLGERVTITCKASQDINSYLSWFQQKPGKSPKTLIYRANRLVDGVPSRFSGSGSGQDYSLTISSLEYEDVGMYYCLQYDEFPYTFGGGTKLEIKR
notes: Beacon screening

Experiments:
monkey NKp46 protein [1] = target: monkey NKp46 protein (monkey); experiment: ELISA on coated monkey NKp46 protein (title 'Cyno NKp46'), HRP anti-human IgG, OD 450 nm
[2] = target: T1, 6506GJ130-1A: Human NKP46 Recombinant Protein (His) (human, UniProt O76036 22-258, limits assumed); experiment: ELISA on coated human NKp46 protein (title 'Human NKp46'), HRP anti-human IgG, OD 450 nm [label printed on D00006]]
T1 construct: also called human NKp46 protein; not shown: His tag

[3] = target: T1, 6506GJ130-1A: Human NKP46 Recombinant …; experiment: ELISA on coated human NKp46 protein, HRP anti-human IgG, OD 450 nm [label printed at foot of D00002]]
Procedure: (§1) Human NKp46 protein and monkey NKp46 protein were each added at a concentration of 0.5 μg/mL to a 96-well plate and reacted for 1 hour at 37° C., followed by three washes with an appropriate volume of washing solution (0.05% Tween20, PBS), and then treated with 150 μL of blocking solution (1% BSA, PBS) for 1 hour at 37° C. After washing three times with an appropriate volume of washing solution (0.05% Tween20, PBS), the wells were treated with 3 serial dilutions of 1 μg/mL of anti-human NKp46 antibody at the maximum concentration and reacted for 1 hour at 37° C. […] The degree of binding between antigen and antibody was detected with 3′,5,5′-tetramethylbenzidine solution. Finally, the reaction was stopped by adding 1M HCl, and the absorbance was measured at 450 nm using an ELISA reader (Thermo Fisher Scientific). Four antibodies (1-2, 1-4-2, 1-8, and 1-10) that specifically bind to human NKp46 and monkey NKp46 were selected by the above two binding tests.

monkey NKp46 protein [4] = target: monkey NKp46 protein (monkey); experiment: ELISA on coated monkey NKp46 protein (title 'Cyno NKp46'), HRP anti-human IgG, OD 450 nm; remark: listed apart in the source
Procedure: as §1

T1 sequence (O76036 22-258 limits assumed): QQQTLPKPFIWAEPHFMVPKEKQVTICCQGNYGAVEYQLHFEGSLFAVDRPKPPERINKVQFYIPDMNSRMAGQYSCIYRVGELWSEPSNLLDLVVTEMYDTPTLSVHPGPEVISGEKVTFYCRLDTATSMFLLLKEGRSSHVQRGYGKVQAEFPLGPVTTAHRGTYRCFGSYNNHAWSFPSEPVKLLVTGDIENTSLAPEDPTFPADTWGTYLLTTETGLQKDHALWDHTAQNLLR
Chain of monkey NKp46 protein (monkey) (Q95JB9 22-257): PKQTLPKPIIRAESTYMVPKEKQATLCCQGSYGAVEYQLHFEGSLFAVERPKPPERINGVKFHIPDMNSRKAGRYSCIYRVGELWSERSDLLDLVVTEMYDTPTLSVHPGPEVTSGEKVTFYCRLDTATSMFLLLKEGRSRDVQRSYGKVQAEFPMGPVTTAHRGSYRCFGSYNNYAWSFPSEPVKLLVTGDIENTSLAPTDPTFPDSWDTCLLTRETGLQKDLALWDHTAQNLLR

Row | Binder | EC50 (read off the curve) (monkey NKp46 protein [1]) | EC50 (read off the curve) [2] | EC50 (read off the curve) [3] | EC50 (read off the curve) (monkey NKp46 protein [4])
1 | B1 | ~0.03 nM | ~0.05 nM |  | 
2 | B2 | ~0.03 nM | ~0.03 nM |  | 
3 | B3 | ~0.06 nM | ~0.05 nM |  | 
4 | B4 |  |  | ~0.2 nM | 
5 | B5 |  |  | ~0.2 nM | ~0.2 nM

Source: US20260226158A1 (DE NOVO BIOTHERAPEUTICS, published 2026)
